Data published in paper PMC8307404, “Crystal Structure-Guided Design of Bisubstrate Inhibitors and Photoluminescent Probes for Protein Kinases of the PIM Family” (Molecules, 2021).
Square brackets hold non-standard residues; d marks the D form. Peptide text beside a SMILES is read from it. * marks the point of attachment. X3 = O=C(CCCCCNCc1nc2c(sc3cc(Br)cnc32)c(=O)[nH]1)*

Experiments:
Assay in all cases: Kinase profiling (radiometric filter-binding)
Type in all cases: biochemical
[1] = target: CAMKKb (Homo sapiens, UniProt Q96RR4); conditions: 1 µM inhibitor, read-out: Residual activity, %
Procedure, shortened: (§1)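 Filter-binding radiometric assays of human kinases measure the fraction of activity that persists with 1 µM inhibitor (final). ATP is supplied at KM or lower for each target.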

[2] = target: T1, DDR2 (Homo sapiens, UniProt Q16832); conditions: DDR2, 1 µM inhibitor; read-out: Residual activity, %
T1 sequence (Q16832 22-855): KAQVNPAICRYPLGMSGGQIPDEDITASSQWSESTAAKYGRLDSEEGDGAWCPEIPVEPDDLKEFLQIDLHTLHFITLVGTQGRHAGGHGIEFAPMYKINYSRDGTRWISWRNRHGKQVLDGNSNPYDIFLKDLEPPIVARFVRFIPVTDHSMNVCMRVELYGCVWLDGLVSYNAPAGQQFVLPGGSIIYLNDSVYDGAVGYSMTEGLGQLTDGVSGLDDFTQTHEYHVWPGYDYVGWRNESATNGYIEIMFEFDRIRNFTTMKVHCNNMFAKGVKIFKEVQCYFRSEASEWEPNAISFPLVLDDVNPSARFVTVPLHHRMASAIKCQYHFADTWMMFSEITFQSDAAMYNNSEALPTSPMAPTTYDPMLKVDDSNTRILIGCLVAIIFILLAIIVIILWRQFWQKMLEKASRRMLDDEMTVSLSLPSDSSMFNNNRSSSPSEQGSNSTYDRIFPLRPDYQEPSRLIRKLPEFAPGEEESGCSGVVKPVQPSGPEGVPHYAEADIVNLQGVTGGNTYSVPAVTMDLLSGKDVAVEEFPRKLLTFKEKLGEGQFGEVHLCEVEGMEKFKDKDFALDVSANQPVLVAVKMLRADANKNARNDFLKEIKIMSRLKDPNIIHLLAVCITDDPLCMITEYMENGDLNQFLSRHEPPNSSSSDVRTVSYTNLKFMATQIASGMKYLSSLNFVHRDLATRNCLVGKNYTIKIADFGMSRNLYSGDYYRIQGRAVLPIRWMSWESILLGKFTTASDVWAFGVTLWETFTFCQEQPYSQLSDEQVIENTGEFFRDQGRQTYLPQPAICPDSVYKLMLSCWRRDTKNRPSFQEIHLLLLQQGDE
Procedure, shortened: as §1

[3] = target: ERK1 (Homo sapiens, UniProt P27361); conditions: ERK1, 1 µM inhibitor; read-out: Residual activity, %
Procedure, shortened: as §1

[4] = target: T2, LKB1 (Homo sapiens, UniProt Q15831); conditions: LKB1, 1 µM inhibitor; read-out: Residual activity, %
T2 sequence (Q15831 1-433): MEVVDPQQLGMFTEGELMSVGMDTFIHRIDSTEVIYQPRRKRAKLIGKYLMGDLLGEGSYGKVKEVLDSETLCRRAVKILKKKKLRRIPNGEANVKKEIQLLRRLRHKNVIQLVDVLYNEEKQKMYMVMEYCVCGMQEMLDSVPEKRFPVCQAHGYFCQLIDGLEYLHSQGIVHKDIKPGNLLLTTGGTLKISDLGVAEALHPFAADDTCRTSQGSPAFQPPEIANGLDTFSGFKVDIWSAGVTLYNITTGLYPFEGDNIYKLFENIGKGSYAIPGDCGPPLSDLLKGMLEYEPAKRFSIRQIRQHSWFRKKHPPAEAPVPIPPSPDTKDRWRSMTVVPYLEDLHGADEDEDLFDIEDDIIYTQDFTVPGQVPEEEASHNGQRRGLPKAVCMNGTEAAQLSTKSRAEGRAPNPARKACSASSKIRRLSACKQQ
T2 sequence (Q7RTN6 1-431 partner): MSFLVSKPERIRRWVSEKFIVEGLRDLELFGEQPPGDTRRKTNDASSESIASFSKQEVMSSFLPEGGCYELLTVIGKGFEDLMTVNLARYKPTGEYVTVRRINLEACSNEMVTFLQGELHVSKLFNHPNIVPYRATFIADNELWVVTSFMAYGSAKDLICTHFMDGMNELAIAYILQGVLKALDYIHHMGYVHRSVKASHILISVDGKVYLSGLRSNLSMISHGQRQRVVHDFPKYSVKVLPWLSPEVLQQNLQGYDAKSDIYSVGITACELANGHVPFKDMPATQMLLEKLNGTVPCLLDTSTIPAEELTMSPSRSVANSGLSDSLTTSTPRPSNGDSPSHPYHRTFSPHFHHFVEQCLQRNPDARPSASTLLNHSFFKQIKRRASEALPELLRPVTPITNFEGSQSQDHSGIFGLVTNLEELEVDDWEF
T2 sequence (Q9Y376 1-341 partner): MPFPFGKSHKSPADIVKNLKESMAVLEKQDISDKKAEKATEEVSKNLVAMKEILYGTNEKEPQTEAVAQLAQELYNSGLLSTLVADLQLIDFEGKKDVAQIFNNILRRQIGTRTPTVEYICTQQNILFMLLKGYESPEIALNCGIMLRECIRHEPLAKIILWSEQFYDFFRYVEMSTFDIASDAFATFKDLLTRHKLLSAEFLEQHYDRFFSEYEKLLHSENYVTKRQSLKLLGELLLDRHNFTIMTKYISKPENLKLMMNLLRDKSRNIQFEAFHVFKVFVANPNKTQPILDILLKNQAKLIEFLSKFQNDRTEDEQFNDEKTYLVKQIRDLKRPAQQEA
Procedure, shortened: as §1

[5] = target: MEKK1 (Homo sapiens, UniProt Q13233); conditions: MEKK1, 1 µM inhibitor; read-out: Residual activity, %
Procedure, shortened: as §1

[6] = target: MNK1 (Homo sapiens, UniProt Q9BUB5); conditions: MNK1, 1 µM inhibitor; read-out: Residual activity, %
Procedure, shortened: as §1

[7] = target: MST3 (Homo sapiens, UniProt Q9Y6E0); conditions: MST3, 1 µM inhibitor; read-out: Residual activity, %
Procedure, shortened: as §1

[8] = target: MST4 (Homo sapiens, UniProt Q9P289); conditions: MST4, 1 µM inhibitor; read-out: Residual activity, %
Procedure, shortened: as §1

[9] = target: SRPK1 (Homo sapiens, UniProt Q96SB4); conditions: SRPK1, 1 µM inhibitor; read-out: Residual activity, %
Procedure, shortened: as §1

[10] = target: TTBK2 (Homo sapiens, UniProt Q6IQ55); conditions: TTBK2, 1 µM inhibitor; read-out: Residual activity, %
Procedure, shortened: as §1

Chain of MNK1 (Q9BUB5 whole entry): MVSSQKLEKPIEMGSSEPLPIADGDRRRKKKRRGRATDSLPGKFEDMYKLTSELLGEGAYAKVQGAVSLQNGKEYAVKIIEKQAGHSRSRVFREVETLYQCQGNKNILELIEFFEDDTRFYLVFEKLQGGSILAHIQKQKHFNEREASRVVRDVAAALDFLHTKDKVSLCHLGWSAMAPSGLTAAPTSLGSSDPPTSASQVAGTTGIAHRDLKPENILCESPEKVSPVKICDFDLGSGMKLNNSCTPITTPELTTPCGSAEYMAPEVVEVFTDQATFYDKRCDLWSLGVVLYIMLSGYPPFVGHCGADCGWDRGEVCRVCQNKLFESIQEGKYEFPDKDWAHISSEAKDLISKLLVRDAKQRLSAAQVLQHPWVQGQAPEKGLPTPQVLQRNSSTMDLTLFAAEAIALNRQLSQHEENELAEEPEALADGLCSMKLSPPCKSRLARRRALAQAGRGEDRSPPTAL
Chain of MEKK1 (Q13233 whole entry): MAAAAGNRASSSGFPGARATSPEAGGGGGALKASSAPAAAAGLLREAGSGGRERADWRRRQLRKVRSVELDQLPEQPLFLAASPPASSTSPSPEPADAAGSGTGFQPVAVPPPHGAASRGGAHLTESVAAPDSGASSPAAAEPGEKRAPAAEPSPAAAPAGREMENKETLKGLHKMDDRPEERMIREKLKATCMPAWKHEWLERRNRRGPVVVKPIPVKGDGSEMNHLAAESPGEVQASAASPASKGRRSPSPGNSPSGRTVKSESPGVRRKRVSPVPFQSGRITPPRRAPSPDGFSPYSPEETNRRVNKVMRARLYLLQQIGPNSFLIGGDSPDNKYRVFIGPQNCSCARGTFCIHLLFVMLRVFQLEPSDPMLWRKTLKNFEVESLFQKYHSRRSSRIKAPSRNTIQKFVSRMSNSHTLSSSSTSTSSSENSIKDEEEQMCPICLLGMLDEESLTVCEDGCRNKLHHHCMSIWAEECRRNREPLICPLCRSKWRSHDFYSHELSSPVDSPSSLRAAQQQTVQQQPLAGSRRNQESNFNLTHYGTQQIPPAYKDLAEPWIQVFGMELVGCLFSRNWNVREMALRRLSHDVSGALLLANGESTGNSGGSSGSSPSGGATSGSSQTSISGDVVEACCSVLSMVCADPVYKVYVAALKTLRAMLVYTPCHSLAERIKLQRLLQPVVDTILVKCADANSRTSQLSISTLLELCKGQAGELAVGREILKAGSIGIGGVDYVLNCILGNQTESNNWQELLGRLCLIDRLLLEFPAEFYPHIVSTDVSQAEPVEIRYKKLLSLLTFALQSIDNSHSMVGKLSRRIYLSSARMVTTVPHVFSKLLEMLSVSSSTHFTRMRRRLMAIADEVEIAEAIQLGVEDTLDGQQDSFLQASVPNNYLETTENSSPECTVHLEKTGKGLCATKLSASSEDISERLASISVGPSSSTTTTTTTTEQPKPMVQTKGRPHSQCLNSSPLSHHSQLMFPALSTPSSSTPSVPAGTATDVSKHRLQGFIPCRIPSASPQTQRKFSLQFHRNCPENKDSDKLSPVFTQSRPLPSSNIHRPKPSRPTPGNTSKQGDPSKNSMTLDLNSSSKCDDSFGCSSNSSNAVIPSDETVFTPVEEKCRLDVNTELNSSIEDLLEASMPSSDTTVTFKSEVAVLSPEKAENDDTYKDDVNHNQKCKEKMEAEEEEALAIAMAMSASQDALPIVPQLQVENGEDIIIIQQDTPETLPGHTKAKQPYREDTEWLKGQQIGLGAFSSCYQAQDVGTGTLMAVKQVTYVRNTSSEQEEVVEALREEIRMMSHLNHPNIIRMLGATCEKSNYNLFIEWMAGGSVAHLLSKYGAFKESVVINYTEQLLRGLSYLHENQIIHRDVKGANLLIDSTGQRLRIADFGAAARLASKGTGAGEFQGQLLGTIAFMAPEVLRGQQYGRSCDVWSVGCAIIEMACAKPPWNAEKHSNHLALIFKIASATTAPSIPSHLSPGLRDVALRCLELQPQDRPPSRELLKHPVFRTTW
Chain of CAMKKb (Q96RR4 whole entry): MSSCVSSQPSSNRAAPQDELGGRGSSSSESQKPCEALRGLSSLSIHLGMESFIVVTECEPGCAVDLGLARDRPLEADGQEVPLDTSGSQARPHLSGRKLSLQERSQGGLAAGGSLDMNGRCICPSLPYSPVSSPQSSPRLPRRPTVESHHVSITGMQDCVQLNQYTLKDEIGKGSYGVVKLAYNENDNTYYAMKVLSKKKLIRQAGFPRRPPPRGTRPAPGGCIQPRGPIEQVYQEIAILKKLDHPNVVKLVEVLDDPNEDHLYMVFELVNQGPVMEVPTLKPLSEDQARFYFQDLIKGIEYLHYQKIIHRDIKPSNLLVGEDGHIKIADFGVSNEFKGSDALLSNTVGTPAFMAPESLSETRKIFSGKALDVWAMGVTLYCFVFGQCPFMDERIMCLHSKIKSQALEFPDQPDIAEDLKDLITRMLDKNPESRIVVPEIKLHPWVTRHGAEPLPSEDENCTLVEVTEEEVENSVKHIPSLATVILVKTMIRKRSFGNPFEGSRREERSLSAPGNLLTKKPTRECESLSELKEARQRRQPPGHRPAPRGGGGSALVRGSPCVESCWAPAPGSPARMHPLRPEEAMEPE
Chain of TTBK2 (Q6IQ55 whole entry): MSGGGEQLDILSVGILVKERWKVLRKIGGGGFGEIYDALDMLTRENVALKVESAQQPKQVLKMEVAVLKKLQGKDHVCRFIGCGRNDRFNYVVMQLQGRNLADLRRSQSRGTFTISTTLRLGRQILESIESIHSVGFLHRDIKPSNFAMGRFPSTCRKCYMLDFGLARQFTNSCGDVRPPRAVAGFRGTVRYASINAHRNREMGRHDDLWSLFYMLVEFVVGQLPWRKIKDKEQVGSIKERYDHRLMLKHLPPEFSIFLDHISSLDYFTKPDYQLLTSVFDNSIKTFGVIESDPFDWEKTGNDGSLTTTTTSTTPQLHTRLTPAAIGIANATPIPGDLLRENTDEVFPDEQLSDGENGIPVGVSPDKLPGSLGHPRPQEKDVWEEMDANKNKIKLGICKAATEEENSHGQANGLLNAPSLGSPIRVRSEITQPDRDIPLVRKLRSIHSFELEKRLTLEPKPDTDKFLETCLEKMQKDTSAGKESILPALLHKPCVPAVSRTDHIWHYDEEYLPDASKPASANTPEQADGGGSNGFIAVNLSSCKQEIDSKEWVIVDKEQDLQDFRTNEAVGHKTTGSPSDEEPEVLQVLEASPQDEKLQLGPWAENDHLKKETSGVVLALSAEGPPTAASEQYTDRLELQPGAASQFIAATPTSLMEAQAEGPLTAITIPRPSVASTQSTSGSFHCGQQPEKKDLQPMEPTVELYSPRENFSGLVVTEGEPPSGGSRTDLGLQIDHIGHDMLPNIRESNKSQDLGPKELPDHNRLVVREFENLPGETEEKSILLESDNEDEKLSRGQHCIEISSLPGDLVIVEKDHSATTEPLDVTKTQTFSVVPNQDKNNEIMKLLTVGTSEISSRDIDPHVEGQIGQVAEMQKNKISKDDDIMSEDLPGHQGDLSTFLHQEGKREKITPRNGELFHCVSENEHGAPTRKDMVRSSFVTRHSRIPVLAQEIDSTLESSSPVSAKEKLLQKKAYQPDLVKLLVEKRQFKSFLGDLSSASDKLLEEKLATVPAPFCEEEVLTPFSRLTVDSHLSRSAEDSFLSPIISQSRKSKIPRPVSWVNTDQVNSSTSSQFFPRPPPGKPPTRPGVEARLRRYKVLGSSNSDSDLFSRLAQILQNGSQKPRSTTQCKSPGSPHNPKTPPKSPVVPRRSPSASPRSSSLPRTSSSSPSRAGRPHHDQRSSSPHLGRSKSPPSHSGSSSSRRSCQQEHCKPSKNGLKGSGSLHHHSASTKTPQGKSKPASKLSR
Chain of MST3 (Q9Y6E0 whole entry): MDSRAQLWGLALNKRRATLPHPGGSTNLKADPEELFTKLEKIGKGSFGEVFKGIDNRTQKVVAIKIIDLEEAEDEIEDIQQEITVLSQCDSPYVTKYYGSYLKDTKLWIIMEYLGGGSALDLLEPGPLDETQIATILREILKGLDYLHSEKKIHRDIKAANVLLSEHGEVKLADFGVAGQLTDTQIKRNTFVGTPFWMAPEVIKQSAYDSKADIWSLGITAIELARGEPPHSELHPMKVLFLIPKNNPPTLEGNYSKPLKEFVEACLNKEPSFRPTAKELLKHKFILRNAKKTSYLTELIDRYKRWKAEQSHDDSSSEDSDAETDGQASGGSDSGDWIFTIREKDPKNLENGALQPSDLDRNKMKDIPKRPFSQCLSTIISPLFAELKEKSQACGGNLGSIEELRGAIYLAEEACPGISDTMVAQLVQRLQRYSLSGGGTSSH
Chain of MST4 (Q9P289 whole entry): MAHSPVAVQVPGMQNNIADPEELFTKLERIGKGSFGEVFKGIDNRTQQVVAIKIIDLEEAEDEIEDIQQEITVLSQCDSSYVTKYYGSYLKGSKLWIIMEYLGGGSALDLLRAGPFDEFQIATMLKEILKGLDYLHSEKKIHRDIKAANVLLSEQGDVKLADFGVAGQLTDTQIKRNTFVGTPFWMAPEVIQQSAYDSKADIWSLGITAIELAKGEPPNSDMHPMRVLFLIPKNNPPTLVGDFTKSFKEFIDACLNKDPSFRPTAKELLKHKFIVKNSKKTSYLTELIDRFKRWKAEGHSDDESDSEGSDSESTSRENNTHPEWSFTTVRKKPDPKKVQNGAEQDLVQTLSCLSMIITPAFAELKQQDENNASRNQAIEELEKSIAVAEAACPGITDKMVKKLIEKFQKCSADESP
Chain of ERK1 (P27361 whole entry): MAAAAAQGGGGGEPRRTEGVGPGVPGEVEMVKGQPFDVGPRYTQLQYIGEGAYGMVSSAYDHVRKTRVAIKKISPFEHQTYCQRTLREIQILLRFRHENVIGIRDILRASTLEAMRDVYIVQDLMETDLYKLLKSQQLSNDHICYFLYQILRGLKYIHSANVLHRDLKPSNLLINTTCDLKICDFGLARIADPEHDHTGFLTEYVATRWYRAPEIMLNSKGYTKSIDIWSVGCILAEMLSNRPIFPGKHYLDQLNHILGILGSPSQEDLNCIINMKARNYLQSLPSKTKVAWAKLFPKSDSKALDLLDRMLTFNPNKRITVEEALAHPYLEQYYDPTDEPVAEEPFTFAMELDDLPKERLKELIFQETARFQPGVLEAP

| Structure (SMILES) | remaining activity at 1 µM [1] [%] | remaining activity at 1 µM [2] [%] | remaining activity at 1 µM [3] [%] | remaining activity at 1 µM [4] [%] | remaining activity at 1 µM [5] [%] | remaining activity at 1 µM [6] [%] | remaining activity at 1 µM [7] [%] | remaining activity at 1 µM [8] [%] | remaining activity at 1 µM [9] [%] | remaining activity at 1 µM [10] [%] |
| --- | --- | --- | --- | --- | --- | --- | --- | --- | --- | --- |
| N=C(N)NCCC[C@@H](NC(=O)CNC(=O)[C@@H](CCCNC(=N)N)NC(=O)[C@@H](CCCNC(=N)N)NC(=O)CCCCCCCNCc1nc2c(sc3cc(Br)cnc32)c(=O)[nH]1)C(=O)N[C@H](CCCCN)C(N)=O [Compound 1, BPTP-Aoc-(D-Arg)2-Gly-D-Arg-D-Lys-NH2] | 117 ± 1 | 104 ± 22 | 119 ± 16 | 107 ± 1 | 108 ± 16 | 102 ± 3 | 104 ± 3 | 143 ± 10 | 102 ± 1 | 109 ± 6 |
| N=C(N)NCCC[C@@H](NC(=O)CCCCCNCc1nc2c(sc3cc(Br)cnc32)c(=O)[nH]1)C(=O)N[C@H](CCCNC(=N)N)C(=O)N[C@H](CCCNC(=N)N)C(=O)N[C@H](CCCNC(=N)N)C(=O)N[C@H](CCCNC(=N)N)C(=O)N[C@H](CCCNC(=N)N)C(=O)N[C@H](CCCCN)C(N)=O [ARC-3126, BPTP-Ahx-(D-Arg)6-D-Lys-NH2] (X3-[dR][dR][dR][dR][dR][dR][dK]-NH2) | 104 ± 13 | 93 ± 3 | 84 ± 7 | 114 ± 11 | 103 ± 2 | 89 ± 5 | 102 ± 5 | 125 ± 22 | 89 ± 5 | 77 ± 2 |
| N=C(N)NCCC[C@@H](NC(=O)CCCCCNC(=O)Cn1cnc2c(I)c(I)c(I)c(I)c21)C(=O)N[C@H](CCCNC(=N)N)C(=O)N[C@H](CCCNC(=N)N)C(=O)N[C@H](CCCNC(=N)N)C(=O)N[C@H](CCCNC(=N)N)C(=O)N[C@H](CCCNC(=N)N)C(=O)N[C@H](CCCCN)C(N)=O [ARC-3125, TIBI-CH2-C(=O)-Ahx-(D-Arg)6-D-Lys-NH2] | 47 ± 1 | 84 ± 13 | 89 ± 7 | 49 ± 28 | 77 ± 1 | 67 ± 4 | 51 ± 24 | 71 ± 4 | 54 ± 1 | 101 ± 24 |
| N=C(N)NCCC[C@@H](NC(=O)CNC(=O)[C@@H](CCCNC(=N)N)NC(=O)[C@@H](CCCNC(=N)N)NC(=O)CCCCCCCNCc1nc2c(sc3ccc(Br)cc32)c(=O)[nH]1)C(=O)N[C@H](CCCCN)C(N)=O [Compound 2, BBTP-Aoc-(D-Arg)2-Gly-D-Arg-D-Lys-NH2] | 108 ± 1 | 107 ± 7 | 125 ± 6 | 118 ± 4 | 119 ± 5 | 66 ± 7 | 112 ± 8 | 121 ± 8 | 113 ± 7 | 125 ± 12 |
| N=C(N)NCCC[C@@H](NC(=O)CNC(=O)[C@@H](CCCNC(=N)N)NC(=O)[C@@H](CCCNC(=N)N)NC(=O)Cn1cc(CNCc2nc3c(sc4ccc(Br)cc43)c(=O)[nH]2)nn1)C(=O)N[C@H](CCCCN)C(N)=O [Compound 3, BBTP-Amt-(D-Arg)2-Gly-D-Arg-D-Lys-NH2] | 85 ± 4 | 112 ± 6 | 107 ± 6 | 115 ± 13 | 98 ± 2 | 89 ± 8 | 98 ± 1 | 95 ± 32 | 91 ± 2 | 105 ± 15 |
